Assay results: IntAct's records for PubMed 19805289

B1: ATP-dependent RNA helicase DBP5 (Saccharomyces cerevisiae), P20449 (parent)
chain: MSDTKRDPADLLASLKIDNEKEDTSEVSTKETVKSQPEKTADSIKPAEKLVPKVEEKKTKQEDSNLISSEYEVKVKLADIQADPNSPLYSAKSFDELGLAPELLKGIYAMKFQKPSKIQERALPLLLHNPPRNMIAQSQSGTGKTAAFSLTMLTRVNPEDASPQAICLAPSRELARQTLEVVQEMGKFTKITSQLIVPDSFEKNKQINAQVIVGTPGTVLDLMRRKLMQLQKIKIFVLDEADNMLDQQGLGDQCIRVKRFLPKDTQLVLFSATFADAVRQYAKKIVPNANTLELQTNEVNVDAIKQLYMDCKNEADKFDVLTELYGLMTIGSSIIFVATKKTANVLYGKLKSEGHEVSILHGDLQTQERDRLIDDFREGRSKVLITTNVLARGIDIPTVSMVVNYDLPTLANGQADPATYIHRIGRTGRFGRKGVAISFVHDKNSFNILSAIQKYFGDIEMTRVPTDDWDEVEKIVKKVLKD
partner: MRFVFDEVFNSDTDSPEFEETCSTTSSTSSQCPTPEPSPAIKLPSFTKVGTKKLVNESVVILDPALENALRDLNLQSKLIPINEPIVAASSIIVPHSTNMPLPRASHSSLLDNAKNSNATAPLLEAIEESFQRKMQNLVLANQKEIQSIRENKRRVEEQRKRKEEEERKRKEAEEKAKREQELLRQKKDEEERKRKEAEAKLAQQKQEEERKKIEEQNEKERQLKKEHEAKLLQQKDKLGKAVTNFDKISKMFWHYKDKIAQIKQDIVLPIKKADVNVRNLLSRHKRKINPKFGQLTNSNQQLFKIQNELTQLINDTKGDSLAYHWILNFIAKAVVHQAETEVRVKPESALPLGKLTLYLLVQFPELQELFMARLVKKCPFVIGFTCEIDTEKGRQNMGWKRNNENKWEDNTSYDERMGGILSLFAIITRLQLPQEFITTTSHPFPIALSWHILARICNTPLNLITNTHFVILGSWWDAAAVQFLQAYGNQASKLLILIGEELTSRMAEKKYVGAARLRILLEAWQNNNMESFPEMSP

Variants of: B1
Conditions: with gle1_yeast GLE1, Q12315

| Variant | effect of a mutation on the interaction |
| --- | --- |
| MSDTKRDPADLLASLKIDNEKEDTSEVSTKETVKSQPEKTADSIKPAEKLVPKVEEKKTKQEDSNLISSEYEVKVKLADIQADPNSPLYSAKSFDELGLAPELLKGIYAMKFQKPSKIQERALPLLLHNPPRNMIAQSQSGTGKTAAFSLTMLTRVNPEDASPQAICLAPSRELARQTLEVVQEMGKFTKITSQLIVPDSFEKNKQINAQVIVGTPGTVLDLMRRKLMQLQKIKIFVLDEADNMLDQQGLGDQCIRVKRFLPKDTQLVLFSATFADAVRQYAKKIVPNANTLELQTNEVNVDAIKQLYMDCKNEADKFDVLTELYGLMTIGSSIIFVATKKTANVLYGKLKSEGHEVSILHGDLQTQERDRLIDDFREGRSEVLITTNVLARGIDIPTVSMVVNYDLPTLANGQADPATYIHRIGRTGRFGRKGVAISFVHDKNSFNILSAIQKYFGDIEMTRVPTDDWDEVEKIVKKVLKD [K382E] | disrupting interaction |
| MSDTKRDPADLLASLKIDNEKEDTSEVSTKETVKSQPEKTADSIKPAEKLVPKVEEKKTKQEDSNLISSEYEVKVKLADIQADPNSPLYSAKSFDELGLAPELLKGIYAMKFQKPSKIQERALPLLLHNPPRNMIAQSQSGTGKTAAFSLTMLTRVNPEDASPQAICLAPSRELARQTLEVVQEMGKFTKITSQLIVPDSFEKNKQINAQVIVGTPGTVLDLMRRKLMQLQKIKIFVLDEADNMLDQQGLGDQCIRVKRFLPKDTQLVLFSATFADAVRQYAKKIVPNANTLELQTNEVNVDAIKQLYMDCKNEADKFDVLTELYGLMTIGSSIIFVATKKTANVLYGKLKSEGHEVSILHGDLQTQERDRLIDDFREGRSKVLITTNVLARGIDIPTVSMVVNYDLPTLANGQADPATYIHRIGRTGRFGRKGVAISFVHDKNSFNILSAIQKYFGDIEMTRVPTDDWDEVKKIVKKVLKD [E473K] | disrupting interaction |
| MSDTKRDPADLLASLKIDNEKEDTSEVSTKETVKSQPEKTADSIKPAEKLVPKVEEKKTKQEDSNLISSEYEVKVKLADIQADPNSPLYSAKSFDELGLAPELLKGIYAMKFQKPSKIQERALPLLLHNPPRNMIAQSQSGTGKTAAFSLTMLTRVNPEDASPQAICLAPSRELARQTLEVVQEMGKFTKITSQLIVPDSFEKNKQINAQVIVGTPGTVLDLMRRKLMQLQKIKIFVLDEADNMLDQQGLGDQCIRVKRFLPKDTQLVLFSATFADAVRQYAKKIVPNANTLELQTNEVNVDAIKQLYMDCKNEADKFDVLTELYGLMTIGSSIIFVATKKTANVLYGKLKSEGHEVSILHGDLQTQERDRLIDDFREGRSKVLITTNVLARGIDIPTVSMVVNYDLPTLANGQADPATYIHRIGRTGRFGRKGVAISFVHDKNSFNILSAIQKYFGDIEMTRVPTDDWDEVAKIVKKVLKD [E473A] | decreasing interaction |
| MSDTKRDPADLLASLKIDNEKEDTSEVSTKETVKSQPEKTADSIKPAEKLVPKVEEKKTKQEDSNLISSEYEVKVKLADIQADPNSPLYSAKSFDELGLAPELLKGIYAMKFQKPSKIQERALPLLLHNPPRNMIAQSQSGTGKTAAFSLTMLTRVNPEDASPQAICLAPSRELARQTLEVVQEMGKFTKITSQLIVPDSFEKNKQINAQVIVGTPGTVLDLMRRKLMQLQKIKIFVLDEADNMLDQQGLGDQCIRVKRFLPKDTQLVLFSATFADAVRQYAKKIVPNANTLELQTNEVNVDAIKQLYMDCKNEADKFDVLTELYGLMTIGSSIIFVATKKTANVLYGKLKSKGHEVSILHGDLQTQERDRLIDDFREGRSKVLITTNVLARGIDIPTVSMVVNYDLPTLANGQADPATYIHRIGRTGRFGRKGVAISFVHDKNSFNILSAIQKYFGDIEMTRVPTDDWDEVEKIVKKVLKD [E353K] | decreasing interaction |
| MSDTKRDPADLLASLKIDNEKEDTSEVSTKETVKSQPEKTADSIKPAEKLVPKVEEKKTKQEDSNLISSEYEVKVKLADIQADPNSPLYSAKSFDELGLAPELLKGIYAMKFQKPSKIQERALPLLLHNPPRNMIAQSQSGTGKTAAFSLTMLTRVNPEDASPQAICLAPSRELARQTLEVVQEMGKFTKITSQLIVPDSFEKNKQINAQVIVGTPGTVLDLMRRKLMQLQKIKIFVLDEADNMLDQQGLGDQCIRVKRFLPKDTQLVLFSATFADAVRQYAKKIVPNANTLELQTNEVNVDAIKQLYMDCKNEADKFDVLTELYGLMAIGSSIIFVATKKTANVLYGKLKSEGHEVSILHGDLQTQERDRLIDDFREGRSKVLITTNVLARGIDIPTVSMVVNYDLPTLANGQADPATYIHRIGRTGRFGRKGVAISFVHDKNSFNILSAIQKYFGDIEMTRVPTDDWDEVEKIVKKVLKD [T329A] | decreasing interaction |
| MSDTKRDPADLLASLKIDNEKEDTSEVSTKETVKSQPEKTADSIKPAEKLVPKVEEKKTKQEDSNLISSEYEVKVKLADIQADPNSPLYSAKSFDELGLAPELLKGIYAMKFQKPSKIQERALPLLLHNPPRNMIAQSQSGTGKTAAFSLTMLTRVNPEDASPQAICLAPSRELARQTLEVVQEMGKFTKITSQLIVPDSFEKNKQINAQVIVGTPGTVLDLMRRKLMQLQKIKIFVLDEADNMLDQQGLGDQCIRVKRFLPKDTQLVLFSATFADAVRQYAKKIVPNANTLELQTNEVNVDAIKQLYMDCKNEADKFDVLTKLYGLMTIGSSIIFVATKKTANVLYGKLKSEGHEVSILHGDLQTQERDRLIDDFREGRSKVLITTNVLARGIDIPTVSMVVNYDLPTLANGQADPATYIHRIGRTGRFGRKGVAISFVHDKNSFNILSAIQKYFGDIEMTRVPTDDWDEVEKIVKKVLKD [E323K] | disrupting interaction |

Variants of: B1
Conditions: with gle1_yeast GLE1, Q12315
Remark: another data set of the same source

| Variant | effect of a mutation on the interaction |
| --- | --- |
| MSDTKRDPADLLASLKIDNEKEDTSEVSTKETVKSQPEKTADSIKPAEKLVPKVEEKKTKQEDSNLISSEYEVKVKLADIQADPNSPLYSAKSFDELGLAPELLKGIYAMKFQKPSKIQERALPLLLHNPPRNMIAQSQSGTGKTAAFSLTMLTRVNPEDASPQAICLAPSRELARQTLEVVQEMGKFTKITSQLIVPDSFEKNKQINAQVIVGTPGTVLDLMRRKLMQLQKIKIFVLDEADNMLDQQGLGDQCIRVKRFLPKDTQLVLFSATFADAVRQYAKKIVPNANTLELQTNEVNVDAIKQLYMDCKNEADKFDVLTELYGLMTIGSSIIFVATKKTANVLYGKLKSEGHEVSILHGDLQTQERDRLIDDFREGRSEVLITTNVLARGIDIPTVSMVVNYDLPTLANGQADPATYIHRIGRTGRFGRKGVAISFVHDKNSFNILSAIQKYFGDIEMTRVPTDDWDEVEKIVKKVLKD [K382E] | decreasing interaction |
| MSDTKRDPADLLASLKIDNEKEDTSEVSTKETVKSQPEKTADSIKPAEKLVPKVEEKKTKQEDSNLISSEYEVKVKLADIQADPNSPLYSAKSFDELGLAPELLKGIYAMKFQKPSKIQERALPLLLHNPPRNMIAQSQSGTGKTAAFSLTMLTRVNPEDASPQAICLAPSRELARQTLEVVQEMGKFTKITSQLIVPDSFEKNKQINAQVIVGTPGTVLDLMRRKLMQLQKIKIFVLDEADNMLDQQGLGDQCIRVKRFLPKDTQLVLFSATFADAVRQYAKKIVPNANTLELQTNEVNVDAIKQLYMDCKNEADKFDVLTELYGLMTIGSSIIFVATKKTANVLYGKLKSEGHEVSILHGDLQTQERDRLIDDFREGRSKVLITTNVLARGIDIPTVSMVVNYDLPTLANGQADPATYIHRIGRTGRFGRKGVAISFVHDKNSFNILSAIQKYFGDIEMTRVPTDDWDEVKKIVKKVLKD [E473K] | decreasing interaction |
| MSDTKRDPADLLASLKIDNEKEDTSEVSTKETVKSQPEKTADSIKPAEKLVPKVEEKKTKQEDSNLISSEYEVKVKLADIQADPNSPLYSAKSFDELGLAPELLKGIYAMKFQKPSKIQERALPLLLHNPPRNMIAQSQSGTGKTAAFSLTMLTRVNPEDASPQAICLAPSRELARQTLEVVQEMGKFTKITSQLIVPDSFEKNKQINAQVIVGTPGTVLDLMRRKLMQLQKIKIFVLDEADNMLDQQGLGDQCIRVKRFLPKDTQLVLFSATFADAVRQYAKKIVPNANTLELQTNEVNVDAIKQLYMDCKNEADKFDVLTKLYGLMTIGSSIIFVATKKTANVLYGKLKSEGHEVSILHGDLQTQERDRLIDDFREGRSKVLITTNVLARGIDIPTVSMVVNYDLPTLANGQADPATYIHRIGRTGRFGRKGVAISFVHDKNSFNILSAIQKYFGDIEMTRVPTDDWDEVEKIVKKVLKD [E323K] | decreasing interaction |
